Results published in the supplement of paper PMC9732359.
± gives the uncertainty stated by the source.

Assay: protein stability index of a GFP-peptide fusion (yeast GPS) (PSI 1-4); higher = more stable; sorted into four equal gates, so the index is relative within each strain
How it was run: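 The protein stability index combines read frequencies across sorting gates, each weighted by its gate number and then summed. To obtain those frequencies, a pooled yeast library of GFP fusions to tiled 17-residue yeast protein peptides, on a plasmid also expressing Cherry, was grown to mid-log phase in leucine-free medium. The cells were sorted into four equal gates by GFP/Cherry ratio before plasmid amplification by PCR and Illumina sequencing.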

Sequence	protein stability index (doa10∆)	protein stability index (pdr5∆)	protein stability index (san1∆)	protein stability index (ubr1∆)
YCDPNTQEIRPVNTGVL [RRP40]	2.62 ± 0.055	2.89 ± 0.05	2.62 ± 0.052	2.76 ± 0.069
YDIDEIDHSDESNRQSV [ESC2]	3.19 ± 0.14	3.35 ± 0.096	3.23 ± 0.13	3.84 ± 0.25
YDPKDGLYKMMEERDGA [AAR2]	3.41 ± 0.12	2.94 ± 0.11	3.4 ± 0.092	
YDRHQSSSKQQSRLFIN [SMC4]				3.31 ± 0.2
YDRNSNNNHKDKKLLRR [SWI1]	3.09 ± 0.053	3.17 ± 0.05	3.06 ± 0.06	3.23 ± 0.041
YEAYPNTSLPPSILEDS [FAS1]	2.15 ± 0.033	2.4 ± 0.03	2.25 ± 0.037	2.4 ± 0.027
YEKAQKDLENAQVEMKS [SMC1]	3.11 ± 0.11	3.29 ± 0.084	3.31 ± 0.052	3.3 ± 0.08
YFGENSSISWKNIAQCL [YJL039C/NUP192]	1.95 ± 0.084	2.57 ± 0.066	1.93 ± 0.064	2.11 ± 0.062
YFKMFPASKHDKEVVYF [RPC34]	2.72 ± 0.16	3.2 ± 0.093	3.26 ± 0.075	3.4 ± 0.19
YFYDLDVLKDGENNINF [BRN1]	3.57 ± 0.22	3.4 ± 0.15	3.54 ± 0.079	3.29 ± 0.11
YGLIRGLKFASFIFQYY [PRP8]	2.23 ± 0.11	2.52 ± 0.13	2.02 ± 0.093	2.36 ± 0.085
YHLTKAVKLGDLKKFTS [RPN3]	1.77 ± 0.065	1.8 ± 0.062	1.54 ± 0.11	1.78 ± 0.052
YHRLSNKDMIKNLVKVL [CSN12]	3.21 ± 0.26	2.97 ± 0.19	1.41 ± 0.25	
YIFFGPIYYQKLKHMVL [RET1]	1.2 ± 0.062	1.38 ± 0.1	1.28 ± 0.12	1.39 ± 0.062
YIHRIGRTGRAANEGTA [PRP28]	3.1 ± 0.11	3.29 ± 0.1	3.26 ± 0.053	3.29 ± 0.071
YIRVNHADKDTFSSSIS [POP8]	2.76 ± 0.049	2.61 ± 0.052	2.52 ± 0.053	2.18 ± 0.037
YISAELYAQLRENGLVP [SNU114]	2.38 ± 0.068	2.21 ± 0.071	2.48 ± 0.1	2.73 ± 0.058
YKRQKSSLLYTYDENDD [ESC2]	1.25 ± 0.059	1.42 ± 0.07	1.17 ± 0.11	1.21 ± 0.06
YKYKMRYVYAHFPINVN [RPL9A]	2.29 ± 0.051	2.29 ± 0.053	2.08 ± 0.078	2.51 ± 0.041
YLDADVAKLANWFLEVY [YML031W/NDC1]	2.45 ± 0.081	2.63 ± 0.099	2.91 ± 0.12	2.79 ± 0.077
YLEDIIGTANYKPLIEE [SMC4]	2.95 ± 0.1	3.28 ± 0.11	3.17 ± 0.077	3.23 ± 0.076
YLHDNASKVLLKIFLYL [IRR1]	1.92 ± 0.099	1.64 ± 0.075	1.42 ± 0.093	1.77 ± 0.053
YLIDHIKVDGAVGNLGN [RPL22B]	2.41 ± 0.23	2.49 ± 0.14	2.53 ± 0.066	2.61 ± 0.24
YLKVSEEEIKKFDSRIR [PRP8]	2.9 ± 0.072	3.08 ± 0.083	2.78 ± 0.066	3.15 ± 0.061
YLVEAPWNDDYPFLLSF [YML103C/NUP188]	1.4 ± 0.048	1.69 ± 0.066	1.43 ± 0.097	1.61 ± 0.072
YMFANLEFSIYHRLSNK [CSN12]	2.13 ± 0.072	2.15 ± 0.076	2.42 ± 0.11	2.25 ± 0.082
YMLIEEAASSNKSFIVD [ITC1]	2.96 ± 0.078	2.91 ± 0.06	2.78 ± 0.041	2.9 ± 0.049

Sequence	protein stability index (doa10∆)	protein stability index (pdr5∆)	protein stability index (san1∆)	protein stability index (ubr1∆)
YMRLWEINETEFIRCGC [RMP1]	3.31 ± 0.13	3.46 ± 0.14	3.55 ± 0.13	3.33 ± 0.049
YNHNDGGDGRDYKGAKL [RRI1]	2.57 ± 0.13	3.2 ± 0.088	3.14 ± 0.078	2.96 ± 0.092
YNIELPLPPRIDPSVTM [RPT1]	2.44 ± 0.21	2.73 ± 0.088	2.47 ± 0.12	1.95 ± 0.083
YNLRSLNLINAKLWFYI [RPN3]	1.32 ± 0.046	1.24 ± 0.051	1.38 ± 0.083	1.48 ± 0.054
YNNNTIRKLLEKINRMI [CSI1]	3 ± 0.18	2.79 ± 0.17		3.1 ± 0.19
YNNRKCWPKDSRMRLIR [PRP8]	2.05 ± 0.09	2.13 ± 0.12	2.19 ± 0.11	2.64 ± 0.14
YNRHKLQELIVNGPNVH [RPO31]	1.19 ± 0.11	1.48 ± 0.1	1.2 ± 0.17	1.22 ± 0.095
YNRYRDLMISCLMNQET [MTR3]	2.44 ± 0.062	2.56 ± 0.063	2.31 ± 0.084	2.5 ± 0.062
YPEDKKTQQNEKSENGE [RPN3]			3.22 ± 0.041	3.13 ± 0.12
YPVYTRLRTLCRDSDDH [DIS3]	2.56 ± 0.2	2.77 ± 0.13	2.29 ± 0.24	2.95 ± 0.046
YQLNGVAPFMIKYEFNG [YMR129W/POM152]	2.63 ± 0.097	2.64 ± 0.075	2.62 ± 0.082	2.73 ± 0.057
YQSPTIFKIVQSRLMST [MED6]	1.71 ± 0.1	1.59 ± 0.13		1.96 ± 0.094
YQSSVQEPFLNSSNYAE [PRP8]	2.99 ± 0.055	2.96 ± 0.052	2.78 ± 0.053	2.9 ± 0.043
YRNNEPAGFTHKLSNWL [YDL088C/ASM4]	2.49 ± 0.072	3.04 ± 0.058	2.7 ± 0.06	2.82 ± 0.039
YSDENDPSISNNIRQAI [RRP4]	2.53 ± 0.077	2.75 ± 0.066	3 ± 0.065	2.47 ± 0.061
YSENGKHDSLRYRLLSD [RPN1]	2.5 ± 0.073	2.49 ± 0.075	2.51 ± 0.1	2.49 ± 0.1
YSIEMKPYSGKLLKVCL [ECM29]	2.62 ± 0.077	2.33 ± 0.098	2.51 ± 0.076	2.83 ± 0.069
YSLEAIKLGSTAIGIAT [PUP2]	1.54 ± 0.066	1.79 ± 0.08	1.43 ± 0.15	1.32 ± 0.069
YTDELEEDVYLDPLARV [FAS2]	3.33 ± 0.095	3.32 ± 0.1	3.54 ± 0.07	3.44 ± 0.053
YTYHSTNKDNKAELIKP [ARP9]	2.74 ± 0.065	2.69 ± 0.053	3.06 ± 0.044	2.98 ± 0.063
YTYSSTLSHLRRTNTPI [RPB2]	2.06 ± 0.043	2.13 ± 0.04	2.23 ± 0.063	2.17 ± 0.033
YVAPTKKEYIELDILNK [SRB4]	2.76 ± 0.17	3.25 ± 0.22	2.74 ± 0.13	2.75 ± 0.2
YVEAQHKLVFVVRIKGI [RPL7A]	1.09 ± 0.058	1.19 ± 0.054	1.25 ± 0.094	1.21 ± 0.053
YVLSTAVEFESVPLRKG [BRR2]	1.7 ± 0.043	1.45 ± 0.04	1.93 ± 0.083	1.34 ± 0.036
YVSDSDDSSSDNDSLTD [SIR4]	2.51 ± 0.051	2.94 ± 0.038	2.67 ± 0.056	2.63 ± 0.047
YYEQFRPDLIKEDHPLE [SIR3]	2.68 ± 0.058	2.73 ± 0.066	3.02 ± 0.043	2.67 ± 0.046
